Test results published in PMC6818471.

B1: GLUT9b: N61Q (protein)
parent chain: MKLSKKDRGEDEESDSAKKKLDWSCSLLVASLAGAFGSSFLYGYNLSVVNAPTPYIKAFYNESWERRHGRPIDPDTLTLLWSVTVSIFAIGGLVGTLIVKMIGKVLGRKHTLLANNGFAISAALLMACSLQAGAFEMLIVGRFIMGIDGGVALSVLPMYLSEISPKEIRGSLGQVTAIFICIGVFTGQLLGLPELLGKESTWPYLFGVIVVPAVVQLLSLPFLPDSPRYLLLEKHNEARAVKAFQTFLGKADVSQEVEEVLAESRVQRSIRLVSVLELLRAPYVRWQVVTVIVTMACYQLCGLNAIWFYTNSIFGKAGIPPAKIPYVTLSTGGIETLAAVFSGLVIEHLGRRPLLIGGFGLMGLFFGTLTITLTLQDHAPWVPYLSIVGILAIIASFCSGPGGIPFILTGEFFQQSQRPAAFIIAGTVNWLSNFAVGLLFPFIQKSLDTYCFLVFATICITGAIYLYFVLPETKNRTYAEISQAFSKRNKAYPPEEKIDSAVTDGKINGRP
B2: GLUT9a: N90Q (protein)
parent chain: MARKQNRNSKELGLVPLTDDTSHAGPPGPGRALLECDHLRSGVPGGRRRKDWSCSLLVASLAGAFGSSFLYGYNLSVVNAPTPYIKAFYNESWERRHGRPIDPDTLTLLWSVTVSIFAIGGLVGTLIVKMIGKVLGRKHTLLANNGFAISAALLMACSLQAGAFEMLIVGRFIMGIDGGVALSVLPMYLSEISPKEIRGSLGQVTAIFICIGVFTGQLLGLPELLGKESTWPYLFGVIVVPAVVQLLSLPFLPDSPRYLLLEKHNEARAVKAFQTFLGKADVSQEVEEVLAESRVQRSIRLVSVLELLRAPYVRWQVVTVIVTMACYQLCGLNAIWFYTNSIFGKAGIPPAKIPYVTLSTGGIETLAAVFSGLVIEHLGRRPLLIGGFGLMGLFFGTLTITLTLQDHAPWVPYLSIVGILAIIASFCSGPGGIPFILTGEFFQQSQRPAAFIIAGTVNWLSNFAVGLLFPFIQKSLDTYCFLVFATICITGAIYLYFVLPETKNRTYAEISQAFSKRNKAYPPEEKIDSAVTDGKINGRP

How the values were obtained:
[1] = [14C]-urate uptake, polarized or depolarized oocytes; settings: glycan lost
[2] = [14C]-urate uptake, oocytes co-expressing ITM2B; settings: glycan lost
[3] = [14C]-urate uptake, oocytes co-expressing TMEM85; settings: glycan lost
[4] = confocal immunofluorescence, HEK 293T; settings: glycan lost; control: wild type GLUT9b

Protein	other: transport activity ([1]; control: wild type GLUT9b)	other: inhibition of urate uptake by ITM2B, other: percent inhibition of uptake ([2]; control: wild type GLUT9b)	other: inhibition of urate uptake by TMEM85 ([3]; control: wild type GLUT9b)	localisation_or_trafficking [4]	other: transport activity ([1]; control: wild type GLUT9a)	other: inhibition of urate uptake by ITM2B, other: percent inhibition of uptake ([2]; control: wild type GLUT9a)	other: inhibition of urate uptake by TMEM85 ([3]; control: wild type GLUT9a)
B1	no change	no change, ∼65–70 vs 65–70	no change	no change			
B2					no change	no change, ∼65–70 vs 65–70	no change
